Laboratory results taken from patent US7479482B2 (priority 2001, dated 2009).
Read-outs that look alike come from different tables or passages of the source.

Assays:
[1] = type: physicochemical
Tg2576 mice = conditions: mouse, in vivo
[2] = system: human neuroblastoma cell line (SK-N-SH)

Aβ1-42: amyloid β peptide 1-42, control peptide and comparison immunogen
alpha (secondary structure by CD) ([1]; Time 0 hr): 9% | beta-sheet (secondary structure by CD) ([1]; Time 0 hr): 36% | random (secondary structure by CD) ([1]; Time 0 hr): 55% | alpha (secondary structure by CD) ([1]; Time 24 hr): 9% | beta-sheet (secondary structure by CD) ([1]; Time 24 hr): 40% | random (secondary structure by CD) ([1]; Time 24 hr): 51% | alpha (secondary structure by CD) ([1]; Time 96 hr): 5% | beta-sheet (secondary structure by CD) ([1]; Time 96 hr): 55% | random (secondary structure by CD) ([1]; Time 96 hr): 40% | radial arm maze skills (Tg2576 mice): had the radial arm maze skills of the positive control | aggregates visible under the microscope in culture wells [2]: aggregates were visible | toxicity to neuroblastoma cells (MTT) [2]: toxic
